The text below walks through data of the supplement of paper PMC10126150.

± gives the standard deviation of the averaged measurements.
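Further: ATP exposure 15 min at 22 °C before imaging.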

The series deals with ATP. Nature of the series: switch fluorescence ratio, 500 uM ATP over buffer (Cy3 cluster intensity, sum of 5 cycles each) (fold (ratio)); higher = stronger signal-on switching upon ATP binding; sequences stand for … in TCGTCGGCAGCGTCAGATGTGTATAAGAGACAGTTTTTTTTTTTTTTTTTTTTTTTTT…TC. The settings on record: aptamer strand: ATP DNA aptamer (quencher-CACCTGGGGGAGTATTGCGGAGGAAGG + anchor), 100 nM annealed; ATP concentration: 500 uM. A digest of the protocol: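 Clusters with intensities outside 100-1000 RFU were excluded. The remaining Cy3-labelled switching-strand clusters on a modified Illumina MiSeq flow-cell had been annealed to 100 nM quencher-labelled ATP aptamer and imaged in selection buffer, then after 15 min with 500 uM ATP at 22 °C, for five cycles separated by NaOH stripping and re-annealing. The fluorescence ratio, averaged per switch-domain sequence, is each cluster's summed target-cycle Cy3 intensity over its summed buffer-cycle Cy3 intensity.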
With ATGCCCAGCT, the switch fluorescence ratio was determined as 1.0068 ± 0.00025.
The result for TAACGCATG reads 1.13 ± 0.082; that for GAGTGGGTCG, 0.983 ± 0.024; that for CAAGGGGGAT, 1.01 ± 0.013.
Consider CCGCATTGGG, for which the switch fluorescence ratio was 3.35 ± 0.93.
AGCATAAGCA: the switch fluorescence ratio was 1.15 ± 0.27.
Consider TGTTTTCGTG, for which the switch fluorescence ratio came out at 0.985 ± 0.015.
For GACCTCACAT, the switch fluorescence ratio came to 1.18 ± 0.022.
As to GTACGAACTT, the switch fluorescence ratio worked out at 1.32 ± 0.061.
As for GGTTGGATGG, the switch fluorescence ratio is 0.9995 ± 0.0007.
The result for GATTTTCAGA reads 0.998 ± 0.027; that for TGATCCGGAG, 1.08 ± 0.038.
The figure for GATTCCAGTT is 1.01 ± 0.032.
The result for CAATCTTGTC reads 0.975 ± 0.057; that for TTGGTGGGAA, 1 ± 0.025; that for TGCGTTTGGG, 1.05 ± 0.064.
As for GAGTTCGTAA, the switch fluorescence ratio stood at 1.46 ± 0.15.
With TAGAGGAGGC, the switch fluorescence ratio was determined as 0.996 ± 0.017.
The figure for GGGAATCATT is 0.948 ± 0.034; for TGAGGATTTG it is 1.02 ± 0.011; for TAAGTGGTCG it is 1.03 ± 0.036.
The result for ATAGTACGCG reads 0.992 ± 0.03.
The result for CGGGAGCG reads 1.03 ± 0.022; that for TTTGGGATTA, 0.983 ± 0.041; that for TAGTTATTTA, 0.99 ± 0.033.
ACCTAGCTCC: the switch fluorescence ratio was determined as 1.71 ± 0.056.
The figure for AGGGTTGTTA is 0.982 ± 0.027.
The figure for GTTTTGTGGA is 1.01 ± 0.007.
The figure for AAAAACAGCG is 1.02 ± 0.053.
Regarding TCTTCTGGGA, the switch fluorescence ratio is 1.026 ± 0.0038.
The figure for TTTGGGTTGG is 1.03 ± 0.13.
The figure for TCGTGGCGCT is 0.995 ± 0.048; for GAAGGGATTG it is 1.02 ± 0.041.
The result for TGCGGAGGGC reads 1.01 ± 0.043.
On to TGAAGGGTGA, for which the switch fluorescence ratio turned out to be 1.007 ± 0.0094.
The figure for AATGTTATAG is 1.008 ± 0.00014.
The figure for ATGGTAGGGG is 0.986 ± 0.014; for GGGTGAGGGG it is 1.01 ± 0.033.
The figure for TTTCACAGTA is 1.03 ± 0.03; for AGTGAGGCTC it is 0.994 ± 0.011; for TTGTATGGGG it is 0.984 ± 0.033.
Take TCATCGGCTC: the switch fluorescence ratio is 1.32 ± 0.11.
The result for TAATGGGGAG reads 0.993 ± 0.014; that for TTATTTGTTT, 0.977 ± 0.018; that for ATGTTTGTTT, 0.993 ± 0.05.
For TGAAAGCACA, the switch fluorescence ratio amounted to 1.11 ± 0.06.
Regarding GCAGGAGGGA, the switch fluorescence ratio came out at 1.01 ± 0.039.
In the case of TTGAATAAGA, the switch fluorescence ratio was found to be 1 ± 0.071.
The figure for TTCTCATTGG is 0.9893 ± 0.0039; for TACCAAAGAA it is 1.04 ± 0.026; for TTCAAATGGG it is 0.9991 ± 0.0053.
The result for ATTACGTAGC reads 1.428 ± 0.0063; that for GGATTAGCGA, 0.975 ± 0.025; that for CCAGGATTGG, 1 ± 0.006.
The result for GTTTAGGAGG reads 0.989 ± 0.022; that for TGTTTTTAAC, 0.983 ± 0.015.
In the case of TGTTAGGGAT, the switch fluorescence ratio worked out at 1.01 ± 0.034.
The figure for GGACGCCTTG is 0.976 ± 0.029.
The result for AGCTTCCATG reads 1.09 ± 0.023; that for GACGGGGTGT, 1.059 ± 0.0039; that for GACTTTAAGC, 1.01 ± 0.032.
The result for CCGTGGTATA reads 1.151 ± 0.0068; that for AGACGGGGGT, 0.997 ± 0.028; that for ATGGGGGTGC, 0.99 ± 0.026.
GCATAGAAAA: the switch fluorescence ratio was 0.982 ± 0.015.
The figure for ACATGACGGT is 1.06 ± 0.027; for AGTAGATGGC it is 1.02 ± 0.053.
